Test results taken from a protein production outcome set (Wang et al. 2014).

Assay: label from the status in PepcDB records

Sequence	protein production
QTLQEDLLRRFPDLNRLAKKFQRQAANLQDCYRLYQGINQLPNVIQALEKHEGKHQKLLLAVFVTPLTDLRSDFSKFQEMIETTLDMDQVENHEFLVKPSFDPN	failed
MGHHHHHHENLYFQSHLKIMDVEGGALVDPDHIEEVETSMVIVVDDDDGDVAMVVEEDKHPMRDDPCIEDIMDDEHAPLVAELQSALNNPDDKQASEDPLLED	failed
MACTVDFRCLDEGFGGKTYKRKRESQEQAAAEAIADEASMDIDGAPPAAKRSAVASSENPDKPIALAVERPTYDGVIAGKVSGRNWKQPRTHRSSGRFVKNRKPDLEEMKRQREIKKAYKERVNELKEEIRSNKVEKRKKKEEREKRKKENVLRTGTKLQKITNPKTLKKISMSKKQRKQLKKIPDEMLSGGSKKSITN	not failed
MSEKREKQTKSKRRIWRGVTTATASLLTLSMSATLVIDGFRTDIDKFLGTQSTKMVTEDVSAEDYTFQSDYSSTTELLDSIEDLGERMNEEGSVLLKNENAALPLSKEETQKISLLGFSSYYPVQGGDFGSTLSENKGTDADTVDMLEAFESKGFEMNPTLKKMYQGLKEEFKSEAVLPWGVTTYYRATAPATTGVFTSLEPETATLDEAEPNWKKSMTDYNVMIVTLARAAGENANYTPGEDGVNPEQDLNQADPLGLSDTERAIIDEAVNAKKENNGKLIVMLNNASAMEIEEIKNNTGVDAILEVGLPGGYGFYGVADVLSGEVNPSGHLADTYAVDNSSSPAAQNYGNYEWTNADSAYSINSEIVEAEGIYTGYKYYETRYADTVLGQGNASDKTGSSNGKAWNYEDEVSYPFGYGLSYTTFSQTLDSLDVNLEDKTVTAKVTVKNTGDVAGKDVVQLYTSLPYTEYDKEHAVEKAAVQLLDYEKTGVLQPGESVTVEITADAQDMASWDSTCDNAAGTKGNWILDAGDYYFTVGNGSHEAVNNVLAAQGMTKANGMTDAGNAANVKKWTLDTFDSETFAYSKNGTAVENQLQDMDLNYYMPDTVTYLSRSDWKATWPKTYKDLTATDEMIEVMKNNLVEIKEQGNPDEVTFGEDNGLTLASLKGETDLTNEKWTDLIDQITLEEAMIRTGFGGTSTKSIVSIVSPEAVQNDGPNGFNSYTLGQYANTDTDSADPYVIDPDDKNLNYKFGTMSNETVIAQTFSKEMAAEYGAVTGNYSIWSNLPILWGAGTNLHRTPYNARNHEYYSEDAILTAYQAAAYIAAGKEYGCIIAPKHFAFNDTEINRSGIATFMTEQKARENELRGTQASVEDAQTLGMMTTFNRIGCTAGNAHYGLLMNILRKEWGFQGLMSEDFIQDANYSVLKEAVHCGVTMTCNTGDSNMEAVTAKWNYWTTEAVSKDASMMQDLKNVMMWQNYALANSNAMDGLNETSQIKDVRTWYDNALTATSAVLALLTLAAAAMYIRDAKRRKNS	failed
MSRSLGIPVKLLHEASGHIVTVELKSGELYRGSMIECEDNWNCQLEDITYTAKDGKVSQLEHVFIRGSKVRFMVIPDILKHAPMFKRLDARIKGKSSSLGVGRGRGAMRGKPAAGPGRGTGGRGAVPPVRR	failed
MNTSCTSYHSMALSESQRDILGMIATNHQLHDILTAICLMIDAQDPGTLCSILLTDAQGKHLLKGAAPGLPPAYSDAIHGLPIGPQEGTCGTAAFRRELVVTADIARDPSWERFRSLALGYNLRSCWSLPLLSHEGSVLGTFALYQDQAIAPSEVQIHRLTCAAQLAAIAIRH	failed
SLREMLGCCKVYISEARNKTALEAIERALKPFPPAAIVNKFEDAAYGRVGYTVVSSLANGSSSSLKNAVFAMVKTALDTINLELHCGSHPRLGVVDHICFHPLSQTSIEQVSSVANSLAMDIGSILRVPTYLYGAAEKEQCTLDSIRRKLGYFKANREGHEWAGGFDLEMVPLKPDAGPQEVSKAKGVVAVGACGWVSNYNVPVMSNDLKAVRRIARKTSERGGGLASVQTMALVHGEGVIEVACNLLNPSQVGGDEVQGLIERLGREEGLLVGKGYYTDYTPDQIVERYMDLLNNS	failed
MADTGDTAGAKKNGDSTFTVLVAAFANLGIAVAKAVAGVISGSSAMLSEAAHSVADTVTEVLLLTSLKRSVRPADEDHPLGHGPERYIWALLAAVATFVGGAVFSLYDGIHTLTHGEDLGDPLVSYIVLAVAFVLEGYSLRTGLRQVRGEAAHHRVSFGRYLRRTPDTAVKAVVMEDSAALAGLLLAAGGLLGGQLTGSGVWDAVASLCIGALLLYVAWVLGRSNAEFLVGRPLSRSVRDRIRAELVADEHIEAVLELTTLVQGPREALVAAKVDFRDVSTAAQIEWACERAEQRLREEFPIVRRVYLDPTPGFAQRRTEGLNPWP	failed
MITETQLTAIQTYALQKLAHDHSGHGRDHLQRVNRLARRLAKDEGANLNLTLAAAWLHDVIDDKLMANPAKAHQDLIVQLNAQNVTADDQTAIFAIIDHMSFSKSFNGPQKLSLEGQVVQDADRLDAIGAIGIARALYYSGHVGEKIYDPAIAPREHMTREQYRHQPGTAINHFYEKLFKLAALMNTDTAKALAAHRTAVMHEFVDQFKAEWTADDKALEHHHHHH	not failed
MEESTVQAPSKRRCSVYEVDGFRFRRKKKRTTESSFVEPIQKEVSNSDSCGHVNDDLNNEEKENKLNVATVPIKSRETVSLAKQEEKTKKLYCESISKDQSEEQRLKALCEAVWTEIYKEAIEEKLPEKGTSLRVLEDVRVAFLDQLTWYLDNPEQRSKTVSEISRPNPINLELEVKIKSLEHDLNCYCNELLGWSNAKSILEEPAKDNKSNETAFSIEERAKKIAVSLSSPYQPQLTRLIKEATVCLDINFTELLEICRIVLTFKNQTAERIKVSYKQELFSNHYQHENS	failed
MAQRSILVGQIWHEGHSFNPILTREKDFLFLRGEAVLEEARASSTALSGIVKTAEALGYRCVPSISARARPGGAIEQKVFDNIVDEFVQAARMQDFDAICLDLHGATLAEHTLDTEGYLLSRLREVVGNDIMISLALDLHAYLTPQMVEQATIITSFRTTPHADIEETGVRAMTLLDSLSNETRPPRAIYSLIPFLTRGNDETWSGPLAEIGAAADRWRARSDVVDLSIFNVHPFLDVPGYGQVVLAYDNGSGAAIDACRDLSDMLWKARDEFQEQLMSVDKALEIARTSRQLLALGDQGDRVMGAGPGDSPEIARVALEHFPGLKVAVPVYDPQAVRTAREAGENATVRMAVGGAFTHSVAPLERDWTVRKLCRARFTNIGPYMAGTEADFGDAAVLTCDAVTVIVTTMAPNVHDPAFYEAVGVPLASQQAVVARAANHYKLSFADIARTITVDTPGLTAFKPHQFPFTQARPFYPLDIVQWSFAPLECNKVG	not failed
MSELSTEAPAQSAKPTIYFDGVSSRRRQVTLTLGDALEIVEEGATPVRWAYADIRRADSPAGILRLASTFAPPLARLEIRDTALAADVSVRCMRLDEHQTTRRGIAKIVGWSVAAAVSIVCVVLFGVPLAADRLAPLVPKPIERRIGDASEVQVKTIFGGRTCEDPAGKAAFTKLVNRLRDAAGLDDDSMTAGVLPTSVPNAFALPGGKVFLLQGLLDRAESPDELAGILAHELGHLKHHDNMRGLIYNGGTSFLIGLLFGDVTGSSAVIFASRSVVEASYSREAETGADTFAIDIMHALGRSPRPSAELMFRITGKEGGSGFTILSSHPLTEDRLARMTKEDRPVSGPPLLTDAEWRALKGICGSGKI	failed
MALVDDGSQPLVSVIIASYNHEKYIEASIASVAAQTYRNVELLVVDDGSSDGSVELLRGLQAKYGFDLRVQQNQGLSRTLNEAITRARGNLIVPFGSDDIMLPQRLEKQVAHMWDKPEVGICAGNIEIIDSNGRVMPGKEQRKRDLPFRRLDFDDLFLDRKPGPMAPTLMFRREALEKVGGFDPDIRLEDVYIELAVTKAGYVIDILGEVLAQYRKHPTNTYKNARFMVDNVFKTYSQFSDHPDYEQVIMRFRNSMFLKCSNRDKVLARELLSGLPLKYWNEKTFRGIARLFFS	failed
MKIYASDEQYKQMNEELDERVESLVSELTLDEKIRLMCQYQEAVPRLGIGKYKHGTEGAHGVAWLGKATVFPQNIGLGCTWNEELMKKIGDVIAEEARVYYQENPEQNGLTIWAPTVDMERDPRWGRTEEAYGEDPYLTGKLTTELIKGMQGDHPFYLKTAATLKHFLANNNEEARTECSVSIDPRNLREYYLKAFEPQVKEGHVQCVMTAYNAVNGTLCNMNPDVNAILKEEWGLQGFVVSDACDVVGSVDDHQFVESYAEAVALSIKNGIDNVTDDEKIIHRAIGDALEQGLLSEEDLDQALKRVFRVRIRLGEFDQENKNPYATVAKEKLCA	failed
MDERNVSKPAMRGHKLVLNNRTASLVTGVKDVLSFDLNEVLLETEQGMLMVKGTDLHVNRLSLEKGEVDLSGNIDSIAYSDVHAEQKQGENLFARLFR	failed
MGGLGYGCHPVPAVLDDEGNQLPDPGRRRTVIHDGSAADRQPGVQHRALADGRRQLARHRLLPGRARRVIAGQGCQRARPRSGEGRRRGVHGDLRHRIRHGPASLPDRGGRGRRAEALLVAEEHAMSRASRHRILAAMLSACLLSLLGGCTPLTVLAVLGGCKDGGSNGSSGGVTGSVTTGEVRDGMTIAQTKAWFNGSDGPDNVCQAYPDGQCTWWACMRGHKIGLDVGSYWGNGGDWAASATAAGWKTTRTDPVAGSIVSYPPGVADADTLYGHVAVVEAVDRTAGTVTISEMNGRGGLGIVNHRTHRINVGAVYILPNGSVSTNGSAGTDSTSSGSESSDSSSSSDSSSSSDPVEAAWTCSSSDSGSTDVVVDYDGDGTHATPEQARAIARKMIASYKDWGDGDYDALVWLWNKESGWQWNATNPSSGAYGIPQALPASKLASAGDDWKDNAATQIKWGLNYIAGRYGSPSAAKTFWLAHNWY	failed
MADNTLHSSARANWLERRFALRSRGGTLRTECLAGITGFLAAAYLLVVIPGLLAIGGMDKGAATTGTILVFVVGSLLMAFYANLPFIVGPGIGGSVLVGVTLAGSEGIGWQTGLGIACWSGILFFLLTRFGLREVVTRSVPQSIKLGLTASIGLFVAVLGFRNAGLVLANAKTNALMLGDFLAPGALVALCGLFLAIALQARKVPGAILWAILCATLVGIPFGVTKLPTHFIDAPHSLAPVLGQVDLLGALNIAFLPFLFVFFASEFFSTMGTTLAVGGEAGLLDEEGNMPQINRPFMVDSIAAALGPWLGIPAATALIESSAAAEAGGKTGLTALSAAVMFLLMLLFTPVALMIPKEATAPALILIGLNMFSGLRKVDLANFTDGLPVLMMVMITLIANSFGTGIAGGLLFYIVIKAIAGKWREIPIGLWVLAVPLVYYFATLVRH	failed
AIASSAPAPGPAPASLTLWDEEDFQGRRCRLLSDCANVCERGGLPRVRSVKVENGVWVAFEYPDFQGQQFILEKGDYPRWSAWSGSSSHNSNQLLSFRPVLCANHNDSRVTLFEGDNFQGCKFDLVDDYPSLPSMGWASKDVGSLKVSSGAWVAYQYPGYRGYQYVLERDRHSGEFCTYGELGTQAHTGQLQSIRRVQH	failed
MREGLRVLNSCNKVRGIFTLTQKTIKTFCFILAILVLIIFAVVFHNHSLEIIDYIDDLGWLAPVLFLITYCLATLLLLPTMVLTLAGGAVFGPVFGTLLNLLGATSGAALAFLITRHLVYDWFSTKKGEKLNKLIAGVDEKGWVFVAFLRLFPIVPFNLVNYGLGVTGISFRLYLLTTFIFLIPAEIIYTYFGYVGMDALTRPGHLYRNGGIFLTGLAIFFLLVIRIMKKR	failed
MVESKTKFEEIRKWVSDHKLRTVGCLWLSGITGSIAYNWSQPAMKTSVKIIHARLHAQALTLAALAGAAVVEYYDHKTEATNRYPKFLPPENLSHKD	failed
MENLKKYLEVAKIAALAGGQVLKENFGKVKKENIEEKGEKDFVSYVDKTSEERIKEVILKFFPDHEVVGEEMGAEGSGSEYRWFIDPLDGTKNYINGFPIFAVSVGLVKGEEPIVGAVYLPYFDKLYWGAKGLGAYVNGKRIKVKDNESLKHAGVVYGFPSRSRRDISIYLNIFKDVFYEVGSMRRPGAAAVDLCMVAEGIFDGMMEFEMKPWDITAGLVILKEAGGVYTLVGEPFGVSDIIAGNKALHDFMLQVAKKYMEVAV	not failed
